Earlier results on 2 substances are cited in paper PMC6916721.

For one data set, the target named is His95 (UniProt position 121, YHCTPHPFMRG). The note with it: reduced (Cu+) amicyanin, free (not in complex with MADH).
Data set [1] deals with Amicyanin, reduced (Cu+) form (UniProt P22364). The note with it: pH.
Chain of Amicyanin, reduced (Cu+) form (P22364 whole entry): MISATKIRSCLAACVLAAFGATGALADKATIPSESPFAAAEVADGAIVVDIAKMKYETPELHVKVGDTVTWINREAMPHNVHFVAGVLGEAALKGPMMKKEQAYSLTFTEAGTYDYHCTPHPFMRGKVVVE

As usually defined, the pKa is the negative logarithm of the acid dissociation constant. Amicyanin (Paracoccus denitrificans): in the data set with His95, the pKa is 7.7.

For the substance Methylamine dehydrogenase (MADH), the pKa, His95 of amicyanin (copper ligand, reduced Cu+ state) in data set [1] was 7.7 pH units.
